How the values were obtained:
TRPV1 = biological target: T1, TRPV1 (Mus musculus, UniProt Q704Y3); test: FL-induced mechanical hyperalgesia with intraplantar TRPV1 inhibitor; type: in vivo, mice; details: intraplantar 10 μl at 30 μg/ml, one hour before FL injection; 12 h
T1 construct: from tissue; host or cells: living mice, hindpaw
Protocol: (§1) Mechanical withdrawal thresholds: The sensitivity to punctuate mechanical stimuli was assessed using the dynamic plantar aesthesiometer (Bioseb, France). Each mouse was placed in a Plexiglass chamber. Sixty minutes later, a mechanical stimulus (a small-diameter blunt metallic filament) was applied to the plantar surface with an increasing force and the paw withdrawal latencies were measured. For each point, mice were tested three times and the responses for each paw were averaged.
To investigate the potential role(s) of FL in modulating noxious sensitivity through the activation of TRPV1 receptor in vivo, we tested the effect of the TRPV1 inhibitor sb-366791 on the FL-induced mechanical hyperalgesia.

mice hindpaws [1] = test: Thermo-nociceptive testing (radiant heat paw withdrawal) after hindpaw injection of FL or NGF; type: in vivo; details: for paw withdrawal latency drop (radiant heat stimulus), thermal hyperalgesia: 12 H after hindpaw injection of 100 ng/10 μl, vs vehicle-injected hindpaws
Protocol: (§2) Animals: Adult Swiss mice (8-10 week old) (CERJ, Le Genest St Isle, France) were used according to the guidelines of the International Association for the Study of Pain. Mice were housed in cages with a 12/12 hr light/dark cycle and fed food and water ad libitum.
(§3) Behavioral experiments: Behavioral responsiveness of the mice was tested following one week of habituation to the testing environment and the observer.
Thermo-nociceptive testing: Nociceptive threshold to acute thermal stimulation was measured using the paw retrieval test (Bioseb, France). Focused light from 12.5 W projection bulb was applied to the middle of the plantar surface of the hind paw (3 mm diameter). The projection bulb was turned off as soon as the mouse removed its paw, and a digital timer connected in series measured the paw withdrawal latency to an accuracy of 0.1 s. We used a cut-off latency of 15 s to avoid the possibility of tissue damage. For each point, mice were tested three times and the responses for each paw were averaged.
FL produces thermal and mechanical hyperalgesia in vivo: To investigate the potential role(s) of FL in modulating noxious heat sensitivity in vivo, we first injected FL (100 ng/10 μl) into mice hindpaws, and latency to ipsilateral paw withdrawal from a radiant heat stimulus was measured. […] At 12 H after injection, FL induced a significant thermal hyperalgesia (latency drop around 30%) compared to control mice hindpaws injected with vehicle (p<0.001) (FIG. 1A). For comparison, NGF (100 ng/10 μ) induced a significant latency drop of 25% at 12 H (FIG. 1A).

mice hindpaws [2] = test: Mechanical withdrawal (von Frey hair filaments) after hindpaw injection of FL or NGF; type: in vivo
Protocol: as §2, §3, §1
We next tested the role of FL in modulating noxious mechanical sensitivity in vivo. […] For comparison, NGF (100ng/10μ1) induced a foot withdrawal response decrease of 30% at 12 H (P<0.001) (FIG. 1B).

[3] = system: TRPV1 positive sensory neurons; test: FL potentiation of capsaicin [Ca2+]i response (Fura-2 imaging) in DRG neurons; type: cell-based, mice
Protocol: DRG neurons primary culture: Primary neuronal cultures were established from lumbar (L4 to L6) dorsal root ganglia (DRG) of adult mice as previously described (Boudes et al, 2009). Ganglia were treated twice with collagenase A (1 mg/ml, Roche Diagnostic, France) for 45 minutes (37° C.) and then with trypsin-EDTA (0.25%, Sigma, St Quentin Fallavier, France) for 30 minutes. They were mechanically dissociated by passing 8 to 10 times through the tip of a fire-polished Pasteur pipette in neurobasal (Life Technologies, Cergy Pontoise, France) culture medium supplemented with 10% foetal bovine serum and DNase (50 U/ml, Sigma, St Quentin Fallavier, France). Isolated cells were collected by centrifugation and suspended in neurobasal culture medium supplemented with 2% B27 (Life Technologies), 2 mM glutamine, penicillin/streptomycin (20 U/ml, 0.2 mg/ml). Dissociated neurons were plated on poly-D,L-ornithine (0.5 mg/ml)-laminin (5 μg/ml)-coated glass coverslips at a density of 2500 neurons per well and were incubated in an incubator with a humidified 95% air/5% CO2 atmosphere. Two hours after plating, the culture medium was carefully removed and replaced to eliminate dead cells and tissue debris. The cells were maintained in culture at 37° C. until experiments were performed. […]
Cells were imaged with a inverted microscope equipped with a NEOFLUAR 25×0.8 objective lens (Axiovert 200, Zeiss, Le Pecq, France) and a CCD camera (Cool SNAP ES, Roper Scientific, France). […] A Fura filter cube with 400 long pass dichroic and D510/40m emission band pass was used to collect fluorescence emissions separately for each wavelength. Images were acquired and analyzed with Metafluor software (Molecular Devices). Changes in intracellular calcium concentrations ([Ca^2+]i ) were monitored as changes of the ratio of the fura-2-fluorescence intensity recorded at 340 nm and 380 nm excitation wavelengths (ΔF340/380). […]
Each neuron was stimulated three times by capsaicin at 4-5 min interval. […] Response areas were calculated as a measure of total Ca^2+ influx. […]

[4] = 12H after hindpaw injection of 100 ng/10 μl
[5] = all capsaicin responders, potentiated and unaffected

T1 sequence (Q704Y3 whole entry): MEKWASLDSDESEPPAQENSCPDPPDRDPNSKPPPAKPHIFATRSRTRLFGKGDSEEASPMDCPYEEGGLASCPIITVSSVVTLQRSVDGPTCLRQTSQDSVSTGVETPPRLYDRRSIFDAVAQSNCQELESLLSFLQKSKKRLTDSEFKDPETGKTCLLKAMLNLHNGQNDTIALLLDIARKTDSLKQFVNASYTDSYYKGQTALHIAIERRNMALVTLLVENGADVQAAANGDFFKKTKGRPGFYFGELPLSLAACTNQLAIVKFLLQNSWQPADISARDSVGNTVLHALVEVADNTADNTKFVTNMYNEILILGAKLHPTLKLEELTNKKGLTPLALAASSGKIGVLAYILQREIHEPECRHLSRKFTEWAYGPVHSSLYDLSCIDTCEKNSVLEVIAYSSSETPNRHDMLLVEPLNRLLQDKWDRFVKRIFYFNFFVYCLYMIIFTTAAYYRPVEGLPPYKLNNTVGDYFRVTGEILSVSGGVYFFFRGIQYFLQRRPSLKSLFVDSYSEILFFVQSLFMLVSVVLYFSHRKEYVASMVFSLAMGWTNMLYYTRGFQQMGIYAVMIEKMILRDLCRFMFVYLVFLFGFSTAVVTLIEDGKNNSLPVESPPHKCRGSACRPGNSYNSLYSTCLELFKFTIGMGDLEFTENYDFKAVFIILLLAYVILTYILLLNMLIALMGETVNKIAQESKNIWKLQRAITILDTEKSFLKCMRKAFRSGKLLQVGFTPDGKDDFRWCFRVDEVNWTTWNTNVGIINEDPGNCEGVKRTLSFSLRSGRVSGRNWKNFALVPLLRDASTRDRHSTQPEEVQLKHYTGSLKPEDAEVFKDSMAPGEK

For `COc1cccc(NC(=O)/C=C/c2ccc(Cl)cc2)c1` [sb-366791], the “foot withdrawal response to von Frey hair filaments after FL injection, vs control mice” value (TRPV1) was “did not show any change in the foot withdrawal response”.

In the case of “NGF: nerve growth factor, used as positive control”, the “paw withdrawal latency drop (radiant heat stimulus), thermal hyperalgesia” value (mice hindpaws [1]) is reported as 25% and the “foot withdrawal response decrease” value (mice hindpaws [2]; [4]) is reported as 30%.

B1: FL: cytokine which is a natural ligand of the FLT3 receptor (protein, UniProt P49771 27-235, looked up)
Fms-related tyrosine kinase 3 …: TQDCSFQHSPISSDFAVKIRELSDYLLQDYPVTVASNLQDEELCGGLWRLVLAQRWMERLKTVAGSKMQGLLERVNTEIHFVTKCAFQPPPSCLRFVQTNISRLLQETSEQLVALKPWITRQNFSRCLELQCQPDSSTLPPPWSPRPLEATAPTAPQPPLLLLLLLPVGLLLLAAAWCLHWQRTRRRTPRPGEQVPPVPSPQDLLLVEH
For B1, the “paw withdrawal latency drop (radiant heat stimulus), thermal hyperalgesia” value (mice hindpaws [1]) was “around 30%”, the “onset of heat hyperalgesia” value (mice hindpaws [1]; hindpaw injection 100 ng/10 μl) was “within one/two hours” and the “return of heat hyperalgesia to control values” (mice hindpaws [1]; hindpaw injection 100 ng/10 μl) was 6 days. For the same molecule, the “foot withdrawal response to von Frey hair filaments reduced to, compared to control” value (mice hindpaws [2]; [4]) was 50%, the “onset of mechanical hyperalgesia” value (mice hindpaws [2]; hindpaw injection 100 ng/10 μl) was “within one/two hours” and the “return of mechanical hyperalgesia to control values” (mice hindpaws [2]; hindpaw injection 100 ng/10 μl) was 6 days. For the same molecule, the “cells that respond to capsaicin showing potentiation of the capsaicin response” value ([3]; FL at 10 and 100 ng/ml, adult DRG neurons) was 56%, the “mean fold increase in TRPV1 response, ΔFarea” value [3, 5] was “≈ 512%” and the “mean fold increase in TRPV1 response, ΔFpeak” value [3, 5] was 212%.
